The text below walks through data of publication PMC6047364, “A Novel PLP-Dependent Alanine/Serine Racemase From the Hyperthermophilic Archaeon Pyrococcus horikoshii OT-3” (Frontiers in Microbiology, 2018).

What is called Km is the concentration of substrate that gives half-maximal velocity. The Vmax is the top rate of the reaction or transport when substrate is in excess. By kcat/Km is commonly meant the turnover number divided by the Michaelis constant. A word on the stoichiometry N: it is a count of units in the complex or per binding partner.

Data set [1] has as its target T1, PH0782; Ala/Ser racemase (ASR) (Pyrococcus horikoshii, UniProt O58478).
T1 construct: full-length, pET11a (NdeI/BglII), no tag described, E. coli BL21 (DE3), purified; hexamer about 300 kDa; fold type I PLP enzyme
Put plainly: apo-enzyme reactivation, racemase activity. The settings on record: apo-enzyme prepared at 80°C for 18 h in assay mixture with L-Ala; covalent (Schiff base, K291 suggested). Format: biochemical.

Data set [2] addresses T2, PH1501 (Pyrococcus horikoshii, UniProt O59170).
T2 construct: full-length, pET11a (NdeI/BamHI), no tag described, E. coli BL21 (DE3), partially purified by heat treatment at 90°C; about 50 kDa on SDS-PAGE
T2 sequence (O59170 1-438): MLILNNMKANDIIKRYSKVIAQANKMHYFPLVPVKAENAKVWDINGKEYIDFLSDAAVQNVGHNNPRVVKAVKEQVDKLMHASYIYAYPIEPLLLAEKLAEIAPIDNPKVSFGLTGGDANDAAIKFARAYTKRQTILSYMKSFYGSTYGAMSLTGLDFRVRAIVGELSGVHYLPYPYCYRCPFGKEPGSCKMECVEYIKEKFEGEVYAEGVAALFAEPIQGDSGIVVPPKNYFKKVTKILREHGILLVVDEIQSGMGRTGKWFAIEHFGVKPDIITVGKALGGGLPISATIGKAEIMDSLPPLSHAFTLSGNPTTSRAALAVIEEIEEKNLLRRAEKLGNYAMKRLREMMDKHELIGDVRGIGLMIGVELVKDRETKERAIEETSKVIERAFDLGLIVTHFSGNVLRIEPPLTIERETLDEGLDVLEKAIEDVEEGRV
Put plainly: UPLC detection of D-amino acid. Format: biochemical. The settings on record: partially purified (heat-treated) enzyme; 100 mM HEPES pH 7.0, 10 mM L-amino acid, 0.04 mM PLP, 80°C, 60 min; slight peak.

Substrate in data set [3]: C[C@H](N)C(=O)O
Put plainly: purified protein. The settings on record: 100 mM HEPES pH 7.0, 0.04 mM PLP, 80°C, racemization to D-Ala, apparent.

Substrate in data set [4]: N[C@@H](CO)C(=O)O
Put plainly: purified protein. The settings on record: 100 mM HEPES pH 7.0, 0.04 mM PLP, 80°C, racemization to D-Ser, apparent.

Substrate in data set [5]: N[C@H](CO)C(=O)O
Put plainly: purified protein. The settings on record: 100 mM HEPES pH 7.0, 0.04 mM PLP, 80°C, racemization to L-Ser, apparent.

Substrate in data set [6]: C[C@@H](N)C(=O)O
Put plainly: purified protein. The settings on record: 100 mM HEPES pH 7.0, 0.04 mM PLP, 80°C, racemization to L-Ala, apparent.

Data set [7] deals with the molecule itself. Put plainly: SEC; gel filtration on HiLoad 26/60 Superdex 200 with molecular mass standards (thyroglobulin, gamma-globulin, ovalbumin, myoglobin); native mass about 300 kDa against a subunit of 50.5 kDa (calculated).

With `Cc1ncc(COP(=O)(O)O)c(C=O)c1O` [pyridoxal 5′-phosphate], the “apo-enzyme reactivation, racemase activity” value in data set [1] is “apo-enzyme exhibited no activity in the absence of PLP and recovered its activity by addition”.

As to `N[C@@H](Cc1ccccc1)C(=O)O` [Phe], the “UPLC detection of D-amino acid” value in data set [2] was “Slight peaks for the D-forms of Met, Phe, and Leu were detected”.

Consider `CSCC[C@H](N)C(=O)O` [Met], for which, in data set [2], the “UPLC detection of D-amino acid” value was “Slight peaks for the D-forms of Met, Phe, and Leu were detected”.

B1: PH0782; Ala/Ser racemase (ASR) (Pyrococcus horikoshii OT3) (protein)
chain: MEYPKIVVKPPGPRAKELIEREKKVLSTGIGVKLFPLVPKRGFGPFIEDVDGNVFIDFLAGAAAASTGYAHPKLVKAVKEQVELIQHSMIGYTHSERAIRVAEKLVEISPIENSKVIFGLSGSDAVDMAIKVSKFSTRRPWILAFIGAYHGQTLGATSVASFQVSQKRGYSPLMPNVFWIPYPNPFRNIWGINGYEEPDELINRVLDYLEYYVFSHVVPPDEVAALFAEPIQGDAGIVVPPENFFKELKKLLEEYGILLVMDEVQTGIGRTGKWFASEWFNVKPDMIIFGKGVASGMGLSGVIGRKEIMDITSGSALLTPAANPVISAAAEATLEIIEEENLLKNALEVGEFIMGRLKEIKERFEIIGDVRGKGLMIGVEIVKENGRPDPEMTGKICWRAFELGLILPSYGMFGNVIRITPPLVLTKEVAEKALEIIERAIKDTLTGKVERKVVTWH
For B1, the Km is reported as 3.3 ± 0.22 mM in data set [3], 4.5 ± 0.32 mM in data set [4], 5.9 ± 0.40 mM in data set [5] and 5.5 ± 0.59 mM in data set [6]. For the same molecule, the maximal velocity (Vmax) stood at 28.2 µmol/min/mg in data set [3], 31.4 µmol/min/mg in data set [4], 41.2 µmol/min/mg in data set [5] and 49.5 µmol/min/mg in data set [6]. The kcat/Km amounted to 7190 M⁻¹ s⁻¹ in data set [3], 5870 M⁻¹ s⁻¹ in data set [4], 5880 M⁻¹ s⁻¹ in data set [5] and 7580 M⁻¹ s⁻¹ in data set [6].

B2: Ala/Ser racemase (ASR), the protein encoded by PH0782, from Pyrococcus horikoshii OT-3 (enzyme, UniProt O58478 1-474, looked up)
chain: MPFLPFSYYPFSLEVILMEYPKIVVKPPGPRAKELIEREKKVLSTGIGVKLFPLVPKRGFGPFIEDVDGNVFIDFLAGAAAASTGYAHPKLVKAVKEQVELIQHSMIGYTHSERAIRVAEKLVEISPIENSKVIFGLSGSDAVDMAIKVSKFSTRRPWILAFIGAYHGQTLGATSVASFQVSQKRGYSPLMPNVFWIPYPNPFRNIWGINGYEEPDELINRVLDYLEYYVFSHVVPPDEVAALFAEPIQGDAGIVVPPENFFKELKKLLEEYGILLVMDEVQTGIGRTGKWFASEWFNVKPDMIIFGKGVASGMGLSGVIGRKEIMDITSGSALLTPAANPVISAAAEATLEIIEEENLLKNALEVGEFIMGRLKEIKERFEIIGDVRGKGLMIGVEIVKENGRPDPEMTGKICWRAFELGLILPSYGMFGNVIRITPPLVLTKEVAEKALEIIERAIKDTLTGKVERKVVTWH
notes: Ala/Ser racemase encoded by ORF PH0782 of Pyrococcus horikoshii OT-3 (annotated as a putative GABA aminotransferase); amplified from genomic DNA with primers from the initiation codon to the termination codon; calculated subunit mass 50.5 kDa; PLP-dependent enzyme; also called BAR homolog; source: E. coli BL21 (DE3), pET11a/PH0782, purified (heat treatment, butyl-Toyopearl, DEAE-cellurofine)
With B2, the “stoichiometry N” value in data set [7] was 6.
